Results on two molecules are retold here after patent US20060286609A1 (BIOCHECK, published 2006).

Assay [1] concerns the target Human Id1: Histidine (human) (UniProt P41134). Briefly: sandwich ELISA, 5-3-coated wells, human Id1:His 50.0 ng/ml, detected with rabbit polyclonal B-5133-HRP. A general note: In an ELISA, binding on a coated surface is turned into a signal by an enzyme label.
For assay [2] the target is unchanged. As to the kind of experiment: ELISA, coated antigen, Ab 0 ug/ml (blank).
Assay [3] addresses T1, glutathione S-transferase (GST) (UniProt P08515 1-218 = GST).
T1 construct: Coated on wells as control for the fusion partner of the immunogen
Briefly: ELISA, coated antigen, Ab 5.00 ug/ml. As for the experimental part: (§1) Incubate plates at 2-8° C. overnight (16-24 hours). [0145] 11. Shake off the BSA solution. [0146] 12. Dispense 250 μL of 2.5% sucrose solution into each well. [0147] 13. Incubate plates at 2-8° C. for 4 hours. [0148] 14. Shake off sucrose solution. [0149] 15. Dry in vacuum at room temperature overnight. Screening Method [0150] 1. Dispense 100 μL of antibody diluent, diluted rabbit polyclonal anti-Id1 into appropriate wells. […] 2. Incubate at room temperature with mechanical shaking at 750 rpm for 90 minutes. [0152] 3. Remove the incubation mixture by flicking plate content into an appropriate waste container, followed by rinsing the wells 5 times with distilled water. […] 4. Strike the wells sharply onto absorbent paper or paper towels to remove all residual water droplets. [0154] 5. Dispense 100 μL of Goat Anti-Rabbit IgG-HRP Conjugate Reagent into each well. Gently mix for 5 seconds. [0155] 6. Incubate at room temperature with mechanical shaking at 750 rpm for 90 minutes. […] 7. Repeat procedures 3 and 4. [0157] 8. Dispense 100 μL of TMB Reagent into each well. Gently mix for 5 seconds. [0158] 9. Incubate at room temperature with mechanical shaking at 750 rpm for 20 minutes. [0159] 10. Add 100 μL of Stop Solution (1N HCl) into each well. [0160] 11. Gently mix for 10 seconds to ensure a complete mixing. […] 12. Read optical density (absorbance) at 450 nm. Results from this assay were used to select the rabbit sera with the highest antibodies titer that selectively reacts with mouse Id1 or human Id1 or both.
(§2) A comparison was carried out between the reactivity of the rabbit monoclonal anti-mouse Id1, clone #BCH-1/#37-2, of this invention and the mouse monoclonal anti-mouse/human Id1 from BD Pharmingen with the following antigens prepared in Example 5: mouse Id1:His, human Id1:His, human Id2:His, human Id3:His, and GST. These antigens and protein were used to coat the wells.
(§3) Materials and methods were those described in Example 9 except (a) Pharmingen's mouse monoclonal anti-mouse Id1 was used in addition to the rabbit monoclonal anti-mouse Id1 (Example 10), and (b) goat anti-mouse IgG-HRP conjugate was used to process the wells treated with the Pharmingen monoclonal antibody and polyclonal goat anti-rabbit IgG-HRP conjugate was used to process wells treated with rabbit monoclonal anti-mouse Id1.

In assay [4] the target is T2, Mouse Id1: Histidine (mouse, UniProt P20067-2 1-148).
T2 construct: E. coli fusion protein (vector pGW07); also called m-Id1-His; not shown: His-tag
T2 sequence: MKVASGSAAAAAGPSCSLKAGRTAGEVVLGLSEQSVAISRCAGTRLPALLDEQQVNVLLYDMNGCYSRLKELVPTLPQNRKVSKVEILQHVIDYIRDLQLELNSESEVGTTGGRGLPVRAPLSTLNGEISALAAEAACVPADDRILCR
Briefly: ELISA, coated antigen, Ab 5.00 ug/ml. Here is the method: as §1, §2, §3

Assay [5] addresses T3, Human Id2: Histidine (human, UniProt Q02363 1-134, limits assumed).
T3 construct: E. coli fusion protein (vector pGW07); also called h-Id2: His; not shown: His-tag
T3 sequence (looked up): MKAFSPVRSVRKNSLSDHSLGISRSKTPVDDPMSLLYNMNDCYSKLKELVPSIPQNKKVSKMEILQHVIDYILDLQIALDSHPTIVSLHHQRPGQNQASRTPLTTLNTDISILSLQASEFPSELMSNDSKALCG
As to the kind of experiment: ELISA, coated antigen, Ab 5.00 ug/ml. As for the experimental part:
as §1, §2, §3

The target in assay [6] is T4, Human Id3: Histidine (human, UniProt Q02535 1-119, limits assumed).
T4 construct: E. coli fusion protein (vector pGW07); also called h-Id3: His; not shown: His-tag
T4 sequence (looked up): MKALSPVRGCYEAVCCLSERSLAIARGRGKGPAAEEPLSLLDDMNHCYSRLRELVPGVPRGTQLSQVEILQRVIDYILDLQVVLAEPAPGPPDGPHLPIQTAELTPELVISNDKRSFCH
As to the kind of experiment: ELISA, coated antigen, Ab 5.00 ug/ml. As for the experimental part: as §1, §2, §3

For assay [7], the target named is T5, mouse Id1 protein (mouse, UniProt P20067-2 1-148).
T5 construct: No tag stated; Western blots: expressed in transfected HeLa cells (whole cell extract on SDS gel); IHC: endogenous in mouse mammary tumor tissue
T5 sequence: T2 sequence
Briefly: SPR (BIACORE 2000), antibody immobilized on CM5 chip, Id-1 as analyte, 1:1 Langmuir model. Here is the method: (§4) Antibodies were immobilized on CM5 sensor chips. All SPR (surface plasmon resonance) assays were carried out in a BIACORE 2000 instrument. A mouse monoclonal antibody was used as reference labeled at the 2nd channel (Fc2) of the chip. BCH-1#37-2 was immobilized on the 4th (Fc4) channel. Final conjugation of antibodies on chip surface was 1878 RU for BCH-1#37-2. Mouse Id-1 and human Id-1 were applied as mobile analytes. The binding assays were carried out in HBS-P buffer (10 mM HEPES, pH 7.4, containing 150 mM sodium chloride, 0.005% surfactant P-20 detergent and 0.12% glycerol). Kinetics were determined with 8 different analyte concentrations ranging from […] to 573 nM. For analyses, 125 μl of analyte were injected (Kinject protocol) at 30 μl/min and the dissociation lasted for 240 seconds at the same flow rate. The surface was regenerated by washing with 50 μl solution of 100 mM glycine and 100 mM of HCl, pH 1.81, at 60 μl/min and the extra cleaning protocol was followed. The kinetic analyses of sensograms were based on the Langmuir (1:1) binding model. Both association rate constant and dissociation rate constants for the interaction of mouse Id-1 and human Id-1 with the immobilized antibodies were determined from the analysis of sensograms using the Biaevaluation software, version 3.0. […]
Background: In SPR one partner is held on a chip, and binding of the other changes the refractive index at the surface.

Assay [8] concerns the target T6, human Id1 protein (human, UniProt P41134 1-155).
T6 construct: No tag stated; Western blots: endogenous in HeLa and other human cancer cell extracts; IHC: endogenous in human mammary tumor tissue
T6 sequence: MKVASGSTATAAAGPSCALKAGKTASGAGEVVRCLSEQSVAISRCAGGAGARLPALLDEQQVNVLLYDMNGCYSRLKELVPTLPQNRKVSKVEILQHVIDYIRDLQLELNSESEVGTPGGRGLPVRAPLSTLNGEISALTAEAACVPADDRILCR
The description is as above. As for the experimental part:
as §4

T1 sequence (P08515 whole entry, the tested form may be a part): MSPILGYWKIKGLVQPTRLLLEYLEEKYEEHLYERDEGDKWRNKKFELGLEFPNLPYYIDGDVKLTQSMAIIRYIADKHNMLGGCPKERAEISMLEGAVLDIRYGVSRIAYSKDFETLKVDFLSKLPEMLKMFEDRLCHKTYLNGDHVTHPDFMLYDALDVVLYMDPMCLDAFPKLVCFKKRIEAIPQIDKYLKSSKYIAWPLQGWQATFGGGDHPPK

In assay [1], “rabbit monoclonal anti-human Id1, clone #BCH-2/#5-3 (antibody)” gave an A450 of 3.15 A450.

B1: rabbit monoclonal anti-mouse Id1, clone #BCH-1/#37-2 (antibody, V domains shown)
VH: QSVEESGGRLVTPGTPLTLTCKVSGFDINSYAMDWFRQAPGKGLEWIGMMSTRGNTYYTSWAKGRFTISKTSSTTVDLKMTSLTTEDTATYFCARGGLWGPGTLVTVSS
VL: RVLTQTASPVSAAVGGTVTINCQASQSVYNGNRLGWYQLKPGQSPKELIHDASTLASGVPSRFRGSGSGTQFTLTINDVQCDDAATYYCVGSYACSTGDCNVFGGGTEVVVK
notes: Rabbit IgG from hybridoma, Protein G purified; also called m Id1 MoAb 37-2; Rabbit Monoclonal Anti-Mouse Id1 (#37-2)
Turning to B1, the A450 in assay [2] stood at 0.047 A450; in assay [3] it was 0.086 A450; in assay [4] it was 3.26 A450; in assay [5], 0.083 A450; in assay [6], 0.091 A450. Also, the Ka in assay [7] came to 2.9e+11 M⁻¹; in assay [8], 2.9e+09 M⁻¹.
